According to US20240010721A1 (HARBOUR BIOMED SHANGHAI, published 2024):
Substitutions are numbered along the chain they refer to. In names and notes the source's numbering stands.

B1: PR002562 (antibody, human IgG1, kappa, V domains shown)
VH: QVQLVQSGGGVVQPGRSLRLSCAASGFTFSSYGMHWVRQAPGKGLEWVAIMWYDGSDKDYADSVKGRFTISRDTSKNTLYLQMNSLRAEDTAVYYCAREQARSFDLWGRGTLVTVSS
VL: DIVMTQSPSSLSASVGDRVTITCRASQTINNWLAWYQQKPGKAPKLLIYKASSLESGVPSRFSGSGSGTEFTLTISSLQPDDFATYYCQQYQSYSPMYTFGQGTKVEIKR
notes: PR001354 variant: VL N92Q; hIgG1; also called anti-ROR1 1015M2-C9(L: N92Q) hIgG1
B2: PR002564 (antibody, human IgG1, kappa, V domains shown)
VH: B1 VH with D54E
VL: B1 VL with Q92N
notes: PR001354 variant: VH D54E; hIgG1; also called anti-ROR1 1015M2-C9(H: D54E) hIgG1
B3: PR002567 (antibody, human IgG1, kappa, V domains shown)
VH: B1 VH with G55A
VL: B1 VL with Q92N
notes: PR001354 variant: VH G55A; hIgG1; also called anti-ROR1 1015M2-C9(H: G55A) hIgG1
B4: PR002586 (antibody, human IgG1, kappa, V domains shown)
VH: B1 VH with Q6E, S31N, M34I, G55A, D57N, K58T, Y80F
VL: B1 VL with S10T
notes: PR001369 variant: VH G55A, VL N92Q; hIgG1; also called anti-ROR1 1015M3-H10(H: G55A; L: N92Q) hIgG1
B5: PR002569 (antibody, human IgG1, kappa, V domains shown)
VH: B1 VH with G55A
VL: B1 VL with Q92N, S93A
notes: PR001354 variant: VH G55A, VL S93A; hIgG1; also called anti-ROR1 1015M2-C9(H: G55A; L: S93A) hIgG1
B6: PR002574 (antibody, human IgG1, kappa, V domains shown)
VH: B1 VH with Q1E, V5L, Q6E, Y32F, I50V, M51I, D54E
VL: B1 VL with S10T, Q92N
notes: PR001364 variant: VH D54E; hIgG1; also called anti-ROR1 1015M3-D8(H: D54E) hIgG1
B7: PR002576 (antibody, human IgG1, kappa, V domains shown)
VH: B1 VH with Q1E, V5L, Q6E, Y32F, I50V, M51I, D54E
VL: B1 VL with S10T, Q92N, S93A
notes: PR001364 variant: VH D54E, VL S93A; hIgG1; also called anti-ROR1 1015M3-D8(H: D54E; L: S93A) hIgG1
B8: PR002585 (antibody, human IgG1, kappa, V domains shown)
VH: B1 VH with Q6E, S31N, M34I, G55A, D57N, K58T, Y80F
VL: B1 VL with S10T, Q92N
notes: PR001369 variant: VH G55A; hIgG1; also called anti-ROR1 1015M3-H10(H: G55A) hIgG1
B9: PR002573 (antibody, human IgG1, kappa, V domains shown)
VH: B1 VH with Q1E, V5L, Q6E, Y32F, I50V, M51I
VL: B1 VL with S10T, Q92N, S93A
notes: PR001364 variant: VL S93A; hIgG1; also called anti-ROR1 1015M3-D8(L: S93A) hIgG1
B10: PR002583 (antibody, human IgG1, kappa, V domains shown)
VH: B1 VH with Q6E, S31N, M34I, D54E, D57N, K58T, Y80F
VL: B1 VL with S10T
notes: PR001369 variant: VH D54E, VL N92Q; hIgG1; also called anti-ROR1 1015M3-H10(H: D54E; L: N92Q) hIgG1
B11: PR002570 (antibody, human IgG1, kappa, V domains shown)
VH: B1 VH with Q6E, I50V, M51A, D54E, S56V, D57S, K58E, T74N, S75A
VL: B1 VL with S10T, T28S, Q92K
notes: PR001356 variant: VH D54E; hIgG1; also called anti-ROR1 1015M2-E6(H: D54E) hIgG1
B12: PR002584 (antibody, human IgG1, kappa, V domains shown)
VH: B1 VH with Q6E, S31N, M34I, D54E, D57N, K58T, Y80F
VL: B1 VL with S10T, Q92N, S93A
notes: PR001369 variant: VH D54E, VL S93A; hIgG1; also called anti-ROR1 1015M3-H10(H: D54E; L: S93A) hIgG1
B13: PR002563 (antibody, human IgG1, kappa, V domains shown)
VH: B1 VH
VL: B1 VL with Q92N, S93A
notes: PR001354 variant: VL S93A; hIgG1; also called anti-ROR1 1015M2-C9(L: S93A) hIgG1
B14: PR002579 (antibody, human IgG1, kappa, V domains shown)
VH: B1 VH with Q1E, V5L, Q6E, Y32F, I50V, M51I, G55A
VL: B1 VL with S10T, Q92N, S93A
notes: PR001364 variant: VH G55A, VL S93A; hIgG1; also called anti-ROR1 1015M3-D8(H: G55A; L: S93A) hIgG1
B15: PR002566 (antibody, human IgG1, kappa, V domains shown)
VH: B1 VH with D54E
VL: B1 VL with Q92N, S93A
notes: PR001354 variant: VH D54E, VL S93A; hIgG1; also called anti-ROR1 1015M2-C9(H: D54E; L: S93A) hIgG1
B16: PR002572 (antibody, human IgG1, kappa, V domains shown)
VH: B1 VH with Q1E, V5L, Q6E, Y32F, I50V, M51I
VL: B1 VL with S10T
notes: PR001364 variant: VL N92Q; hIgG1; also called anti-ROR1 1015M3-D8(L: N92Q) hIgG1
B17: PR002578 (antibody, human IgG1, kappa, V domains shown)
VH: B1 VH with Q1E, V5L, Q6E, Y32F, I50V, M51I, G55A
VL: B1 VL with S10T
notes: PR001364 variant: VH G55A, VL N92Q; hIgG1; also called anti-ROR1 1015M3-D8(H: G55A; L: N92Q) hIgG1
B18: PR002580 (antibody, human IgG1, kappa, V domains shown)
VH: B1 VH with Q6E, S31N, M34I, D57N, K58T, Y80F
VL: B1 VL with S10T
notes: PR001369 variant: VL N92Q; hIgG1; also called anti-ROR1 1015M3-H10(L: N92Q) hIgG1
B19: PR002565 (antibody, human IgG1, kappa, V domains shown)
VH: B1 VH with D54E
VL: B1 VL
notes: PR001354 variant: VH D54E, VL N92Q; hIgG1; also called anti-ROR1 1015M2-C9(H: D54E; L: N92Q) hIgG1
B20: PR002575 (antibody, human IgG1, kappa, V domains shown)
VH: B1 VH with Q1E, V5L, Q6E, Y32F, I50V, M51I, D54E
VL: B1 VL with S10T
notes: PR001364 variant: VH D54E, VL N92Q; hIgG1; also called anti-ROR1 1015M3-D8(H: D54E; L: N92Q) hIgG1
B21: PR002582 (antibody, human IgG1, kappa, V domains shown)
VH: B1 VH with Q6E, S31N, M34I, D54E, D57N, K58T, Y80F
VL: B1 VL with S10T, Q92N
notes: PR001369 variant: VH D54E; hIgG1; also called anti-ROR1 1015M3-H10(H: D54E) hIgG1
B22: PR002568 (antibody, human IgG1, kappa, V domains shown)
VH: B1 VH with G55A
VL: B1 VL
notes: PR001354 variant: VH G55A, VL N92Q; hIgG1; also called anti-ROR1 1015M2-C9(H: G55A; L: N92Q) hIgG1
B23: PR002581 (antibody, human IgG1, kappa, V domains shown)
VH: B1 VH with Q6E, S31N, M34I, D57N, K58T, Y80F
VL: B1 VL with S10T, Q92N, S93A
notes: PR001369 variant: VL S93A; hIgG1; also called anti-ROR1 1015M3-H10(L: S93A) hIgG1
B24: PR002571 (antibody, human IgG1, kappa, V domains shown)
VH: B1 VH with Q6E, I50V, M51A, G55A, S56V, D57S, K58E, T74N, S75A
VL: B1 VL with S10T, T28S, Q92K
notes: PR001356 variant: VH G55A; hIgG1; also called anti-ROR1 1015M2-E6(H: G55A) hIgG1
B25: PR002587 (antibody, human IgG1, kappa, V domains shown)
VH: B1 VH with Q6E, S31N, M34I, G55A, D57N, K58T, Y80F
VL: B1 VL with S10T, Q92N, S93A
notes: PR001369 variant: VH G55A, VL S93A; hIgG1; also called anti-ROR1 1015M3-H10(H: G55A; L: S93A) hIgG1
B26: PR002577 (antibody, human IgG1, kappa, V domains shown)
VH: B1 VH with Q1E, V5L, Q6E, Y32F, I50V, M51I, G55A
VL: B1 VL with S10T, Q92N
notes: PR001364 variant: VH G55A; hIgG1; also called anti-ROR1 1015M3-D8(H: G55A) hIgG1

Each binder was assayed against T1, human ROR1 (hROR1) on cells (human, UniProt Q01973 30-937) (assay: FACS, HEK293T-hROR1 cells; also: test concentration or dose not given here).
T1 construct: whole, on cells; the cell line is named under assay; also called HEK293T-hROR1; 293T-hROR1
T1 sequence (Q01973 30-937): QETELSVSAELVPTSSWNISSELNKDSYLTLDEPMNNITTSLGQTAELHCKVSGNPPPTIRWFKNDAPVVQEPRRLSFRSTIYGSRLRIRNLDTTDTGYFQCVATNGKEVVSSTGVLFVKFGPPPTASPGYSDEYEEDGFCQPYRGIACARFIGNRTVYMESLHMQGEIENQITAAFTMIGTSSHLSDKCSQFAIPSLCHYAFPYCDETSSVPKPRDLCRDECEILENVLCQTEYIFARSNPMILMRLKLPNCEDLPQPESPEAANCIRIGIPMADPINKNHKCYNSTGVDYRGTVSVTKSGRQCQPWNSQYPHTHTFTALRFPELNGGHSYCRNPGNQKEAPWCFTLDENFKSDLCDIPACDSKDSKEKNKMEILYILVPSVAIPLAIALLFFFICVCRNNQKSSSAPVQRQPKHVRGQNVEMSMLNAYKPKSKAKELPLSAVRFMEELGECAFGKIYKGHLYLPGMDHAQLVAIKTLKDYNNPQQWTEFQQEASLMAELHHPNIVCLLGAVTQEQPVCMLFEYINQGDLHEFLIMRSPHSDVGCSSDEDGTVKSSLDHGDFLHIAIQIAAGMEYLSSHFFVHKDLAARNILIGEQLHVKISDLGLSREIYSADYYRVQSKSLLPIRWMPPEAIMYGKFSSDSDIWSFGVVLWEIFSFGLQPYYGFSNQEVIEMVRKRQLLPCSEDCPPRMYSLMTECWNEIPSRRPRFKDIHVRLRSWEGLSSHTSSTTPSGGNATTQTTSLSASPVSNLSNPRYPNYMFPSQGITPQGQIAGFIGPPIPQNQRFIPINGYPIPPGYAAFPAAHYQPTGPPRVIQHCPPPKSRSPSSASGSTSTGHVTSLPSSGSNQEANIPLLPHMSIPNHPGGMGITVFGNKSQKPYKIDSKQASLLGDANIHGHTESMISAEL

Row | Binder | MFI
1 | B1 | 43900 MFI
2 | B2 | 43200 MFI
3 | B3 | 41900 MFI
4 | B4 | 41900 MFI
5 | B5 | 34500 MFI
6 | B6 | 45300 MFI
7 | B7 | 40200 MFI
8 | B8 | 32700 MFI
9 | B9 | 37200 MFI
10 | B10 | 25300 MFI
11 | B11 | 43100 MFI
12 | B12 | 36600 MFI
13 | B13 | 43800 MFI
14 | B14 | 43100 MFI
15 | B15 | 43300 MFI
16 | B16 | 43000 MFI
17 | B17 | 45100 MFI
18 | B18 | 42500 MFI
19 | B19 | 46900 MFI
20 | B20 | 33800 MFI
21 | B21 | 32300 MFI
22 | B22 | 46300 MFI
23 | B23 | 42300 MFI
24 | B24 | 49600 MFI
25 | B25 | 41500 MFI
26 | B26 | 44200 MFI

The binders below were run against T1, human ROR1 (hROR1) on cells (assay: FACS, Panc-1 cells; also: test concentration or dose not given here).

Row | Binder | MFI
27 | B1 | 5600 MFI
28 | B2 | 6590 MFI
29 | B3 | 7030 MFI
30 | B4 | 5490 MFI
31 | B5 | 3760 MFI
32 | B6 | 5870 MFI
33 | B7 | 2470 MFI
34 | B8 | 2610 MFI
35 | B9 | 3710 MFI
36 | B10 | 3950 MFI
37 | B11 | 3660 MFI
38 | B12 | 3180 MFI
39 | B13 | 5020 MFI
40 | B14 | 7050 MFI
41 | B15 | 4630 MFI
42 | B16 | 3930 MFI
43 | B17 | 6700 MFI
44 | B18 | 3720 MFI
45 | B19 | 6820 MFI
46 | B20 | 3250 MFI
47 | B21 | 1990 MFI
48 | B22 | 3620 MFI
49 | B23 | 3180 MFI
50 | B24 | 4560 MFI
51 | B25 | 2950 MFI
52 | B26 | 6490 MFI

These binders were tested against ROR1 (antigen of the KD determination and of the Octet dissociation measurement) (UniProt Q01973 30-403, limits assumed) (assay: Octet, antigen form not stated).
ROR1 (antigen of the KD determination and of the Octet dissociation measurement), sequence (Q01973 30-403 limits assumed): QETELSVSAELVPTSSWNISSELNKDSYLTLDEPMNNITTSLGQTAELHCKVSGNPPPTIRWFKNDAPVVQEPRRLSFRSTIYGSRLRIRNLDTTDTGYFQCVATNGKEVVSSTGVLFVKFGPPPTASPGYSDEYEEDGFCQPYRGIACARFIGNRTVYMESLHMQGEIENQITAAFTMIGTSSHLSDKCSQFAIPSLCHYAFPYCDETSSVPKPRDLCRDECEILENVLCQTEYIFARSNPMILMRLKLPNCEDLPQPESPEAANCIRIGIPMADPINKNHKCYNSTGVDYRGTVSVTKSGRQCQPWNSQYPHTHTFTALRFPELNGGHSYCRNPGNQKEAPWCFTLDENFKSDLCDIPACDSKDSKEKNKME

Row | Binder | Response | koff
53 | B1 | 0.629 | 0.000162 s⁻¹
54 | B2 | 0.748 | 0.000108 s⁻¹
55 | B3 | 0.707 | 0.000215 s⁻¹
56 | B4 | 0.754 | 0.000266 s⁻¹
57 | B5 | 0.614 | 0.000207 s⁻¹
58 | B6 | 0.485 | 0.000172 s⁻¹
59 | B7 | 0.866 | 9.83e-05 s⁻¹
60 | B8 | 0.771 | 0.000389 s⁻¹
61 | B9 | 0.723 | 8.84e-05 s⁻¹
62 | B10 | 0.672 | 0.000223 s⁻¹
63 | B11 | 0.472 | 0.00108 s⁻¹
64 | B12 | 0.69 | 0.000301 s⁻¹
65 | B13 | 0.757 | 0.000122 s⁻¹
66 | B14 | 0.783 | 0.000199 s⁻¹
67 | B15 | 0.663 | 0.000135 s⁻¹
68 | B16 | 0.606 | 0.000104 s⁻¹
69 | B17 | 0.414 | 0.000322 s⁻¹
70 | B18 | 0.985 | 4.75e-05 s⁻¹
71 | B19 | 0.595 | 0.000106 s⁻¹
72 | B20 | 0.828 | 0.000112 s⁻¹
73 | B21 | 0.798 | 0.000193 s⁻¹
74 | B22 | 0.702 | 0.00014 s⁻¹
75 | B23 | 0.974 | 6.73e-05 s⁻¹
76 | B24 | 0.638 | 0.000113 s⁻¹
77 | B25 | 0.756 | 0.000394 s⁻¹
78 | B26 | 0.244 | 0.000601 s⁻¹
